Experimental data: patent US20230125550A1 (ARCELLX, published 2023)
Where a chain is given by its changes, count along the chain named.

B1: SEQ ID NO: 373 (designed binder)
chain: MGSWFEFNYRLGAIEDRLWALGGSEAELAAFEKEIAAFESELQAYKGKGNPEVEMLRQIAAEIREFLQAYRHN
notes: D domain, on phage
B2: SEQ ID NO: 366 (designed binder)
chain: MGSWVEFWDRLDAIEGRLWALGGSEAELAAFEKEIAAFESELQAYKGKGNPEVEDLRWLAAEIRADLQAYRHN
notes: D domain, on phage
B3: SEQ ID NO: 399 (designed binder)
chain: B2 chain with V5F, D9E, G16W, D55E, W58S, L59T, E62D, A65R, D66Y
notes: D domain, on phage
B4: SEQ ID NO: 376 (designed binder)
chain: B2 chain with V5Y, D9G, G16E, K48R, D55M, W58E, L59D, A65G, D66Q
notes: D domain, on phage
B5: SEQ ID NO: 387 (designed binder)
chain: MGSWLEFMWRLDAIDERLWALGGSEAELAAFEKEIAAFESELQAYKGKGNPEVELLREMAAAIRDDLQAYRHN
notes: D domain, on phage
B6: SEQ ID NO: 335 (designed binder)
chain: MGSWDEFYYRLEAIEMRLGALGGSEAELAAFEKEIAAFESELQAYKGKGNPEVEELRHYAAQIRHMLQAYRHN
notes: D domain, on phage
B7: SEQ ID NO: 336 (designed binder)
chain: B6 chain with D5E, Y9D, E15Y, M16N, E55V, H58E, Q62D, H65E
notes: D domain, on phage
B8: SEQ ID NO: 385 (designed binder)
chain: MGSWEEFWERLDAIDTRLWALGGSEAELAAFEKEIAAFESELQAYKGKGNPEVEVLRNDAADIREPLQAYRHN
notes: D domain, on phage
B9: SEQ ID NO: 388 (designed binder)
chain: B5 chain with L5T, M8Y, W9N, E16Q, L55M, M59Y, A62D, D65T
notes: D domain, on phage
B10: SEQ ID NO: 386 (designed binder)
chain: B8 chain with E5M, D12E, T16M, V55Y, N58D, D62V, E65D, P66D
notes: D domain, on phage
B11: SEQ ID NO: 421 (designed binder)
chain: MGSWNEFAWRLDAIYSRLAALGGSEAELAAFEKEIAAFESELQAYKGKGNPEVEWLRVAAANIRYELQAYRHN
notes: D domain, on phage
B12: SEQ ID NO: 401 (designed binder)
chain: B11 chain with N5Q, A8T, W9M, S16N, A19E, A20T, V58Q, A59S, Y65S
notes: D domain, on phage
B13: SEQ ID NO: 426 (designed binder)
chain: B11 chain with N5V, A8I, W9Y, S16D, A19E, W55V, V58R, A59Y, Y65N
notes: D domain, on phage
B14: SEQ ID NO: 431 (designed binder)
chain: B11 chain with N5S, A8Y, W9L, S16D, A19D, V58K, A59T, Y65E
notes: D domain, on phage
B15: SEQ ID NO: 423 (designed binder)
chain: B11 chain with N5V, A8S, W9I, S16T, A19V, W55M, V58K, A59G, Y65K
notes: D domain, on phage
B16: SEQ ID NO: 429 (designed binder)
chain: B11 chain with N5F, A8Y, W9M, S16D, A19T, W55R, V58T, A59F, Y65K
notes: D domain, on phage
B17: SEQ ID NO: 425 (designed binder)
chain: B11 chain with N5Y, A8S, W9M, S16D, A19M, W55Q, V58G, A59Y, Y65N
notes: D domain, on phage
B18: SEQ ID NO: 428 (designed binder)
chain: B11 chain with N5F, A8Y, W9D, S16M, A19I, W55V, V58R, A59Y, Y65A
notes: D domain, on phage
B19: SEQ ID NO: 427 (designed binder)
chain: B11 chain with N5I, A8E, W9V, S16N, W55R, V58R, A59Y, Y65H
notes: D domain, on phage
B20: SEQ ID NO: 422 (designed binder)
chain: B11 chain with N5T, S16D, A19L, V58H, A59V, Y65R
notes: D domain, on phage
B21: SEQ ID NO: 424 (designed binder)
chain: B11 chain with N5V, A8Y, W9I, S16V, A19M, W55K, V58S, A59Y, Y65Q
notes: D domain, on phage
B22: SEQ ID NO: 430 (designed binder)
chain: B11 chain with N5Y, A8D, W9Y, S16D, W55R, V58K, A59W, Y65E
notes: D domain, on phage
B23: SEQ ID NO: 361 (designed binder)
chain: MGSWDEFEQRLIAIEERLFALGGSEAELAAFEKEIAAFESELQAYKGKGNPEVEWLREEAAVIRKYLQAYRHN
notes: D domain, on phage
B24: SEQ ID NO: 398 (designed binder)
chain: B23 chain with D5S, Q9H, I12E, E16S, W55D, E58S, V62W, K65E, Y66Q
notes: D domain, on phage
B25: SEQ ID NO: 327 (designed binder)
chain: MGSWTEFVWRLEAIWDRLDALGGSEAELAAFEKEIAAFESELQAYKGKGNPEVEVLREDAAVIRHFLQAYRHN
notes: D domain, on phage
B26: SEQ ID NO: 400 (designed binder)
chain: MGSWFEFWGRLEAIESRLKALGGSEAELAAFEKEIAAFESELQAYKGKGNPEVEELREHAAWIRAYLQAYRHN
notes: D domain, on phage
B27: SEQ ID NO: 375 (designed binder)
chain: MGSWYEFSNRLDAIGERLWALGGSEAELAAFEKEIAAFESELQAYKGKGNPEVEILRHQAAEIRWFLQAYRHN
notes: D domain, on phage
B28: SEQ ID NO: 365 (designed binder)
chain: MGSWHEFDQRLWAIEERLWALGGSEAELAAFEKEIAAFESELQAYKGKGNPEVETLRLYAALIRHDLQAYRHN
notes: D domain, on phage
B29: SEQ ID NO: 377 (designed binder)
chain: MGSWVEFWDRLWAIDYRLFALGGSEAELAAFEKEIAAFESELQAYKGKGNPEVEALRDEAAWIREELQAYRHN
notes: D domain, on phage
B30: SEQ ID NO: 392 (designed binder)
chain: B29 chain with V5T, D9E, W12N, Y16E, A55W, D58L, E59Y, W62E, E65S
notes: D domain, on phage
B31: SEQ ID NO: 432 (designed binder)
chain: B29 chain with V5F, W8Y, D9E, W12D, D15N, Y16W, D58G, W62A, E66D
notes: D domain, on phage
B32: SEQ ID NO: 391 (designed binder)
chain: B29 chain with V5S, W8E, Y16Q, A55W, D58A, E59Y, W62D, E65W
notes: D domain, on phage
B33: SEQ ID NO: 384 (designed binder)
chain: B8 chain with E5D, W8E, D12F, T16E, V55A, N58Y, D59L, P66E
notes: D domain, on phage
B34: SEQ ID NO: 390 (designed binder)
chain: B29 chain with V5S, W8Y, D15E, Y16E, A55Y, D58Y, E59Y, W62E
notes: D domain, on phage
B35: SEQ ID NO: 394 (designed binder)
chain: B28 chain with H5W, D8E, Q9N, W19E, T55M, L58N, L62E, H65W, D66E
notes: D domain, on phage
B36: SEQ ID NO: 378 (designed binder)
chain: B29 chain with W8V, Y16E, F19D, A55F, D58T, E59W, E66D
notes: D domain, on phage
B37: SEQ ID NO: 396 (designed binder)
chain: B23 chain with D5V, Q9E, I12E, E58D, E59D, V62N, K65H, Y66W
notes: D domain, on phage
B38: SEQ ID NO: 395 (designed binder)
chain: B29 chain with W8E, D9E, Y16E, F19G, A55W, E59W, W62D, E65W, E66W
notes: D domain, on phage
B39: SEQ ID NO: 389 (designed binder)
chain: MGSWWEFIWRLEAIEQRLWALGGSEAELAAFEKEIAAFESELQAYKGKGNPEVEVLRSRAADIRTDLQAYRHN
notes: D domain, on phage
B40: SEQ ID NO: 333 (designed binder)
chain: MGSWEEFAQRLYAIEWRLYALGGSEAELAAFEKEIAAFESELQAYKGKGNPEVEVLRYVAAQIRYHLQAYRHN
notes: D domain, on phage
B41: SEQ ID NO: 352 (designed binder)
chain: B23 chain with E8G, Q9R, I12Y, E16W, F19Y, W55K, E59I, K65S, Y66N
notes: D domain, on phage
B42: SEQ ID NO: 362 (designed binder)
chain: MGSWVEFDQRLGAIWDRLVALGGSEAELAAFEKEIAAFESELQAYKGKGNPEVEHLRQGAAVIRDDLQAYRHN
notes: D domain, on phage
B43: SEQ ID NO: 393 (designed binder)
chain: MGSWWEFEERLWAIDYRLHALGGSEAELAAFEKEIAAFESELQAYKGKGNPEVEMLRSWAAEIRALLQAYRHN
notes: D domain, on phage
B44: SEQ ID NO: 334 (designed binder)
chain: MGSWDEFAWRLDVIFARLGALGGSEAELAAFEKEIAAFESELQAYKGKGNPEVEELRKNAAQIRDGLQAYRHN
notes: D domain, on phage
B45: SEQ ID NO: 374 (designed binder)
chain: MGSWEEFFTRLDAINERLEALGGSEAELAAFEKEIAAFESELQAYKGKGNPEVEMLRYEAAEIRHMLQAYRHN
notes: D domain, on phage

Molecular target: T1, recombinant human CD123-Fc (human, UniProt P26951 19-305)
T1 construct: not shown: Fc part of CD123-Fc
T1 sequence: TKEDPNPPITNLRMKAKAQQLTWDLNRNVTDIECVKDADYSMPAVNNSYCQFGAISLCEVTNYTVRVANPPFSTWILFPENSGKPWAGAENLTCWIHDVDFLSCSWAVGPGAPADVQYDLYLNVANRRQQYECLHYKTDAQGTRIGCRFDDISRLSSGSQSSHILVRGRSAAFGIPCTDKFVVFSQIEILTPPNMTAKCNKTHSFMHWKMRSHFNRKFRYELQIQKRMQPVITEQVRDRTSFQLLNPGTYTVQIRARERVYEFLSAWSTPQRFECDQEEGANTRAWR
Test: phage ELISA, captured CD123-Fc
Procedure: Individual colonies containing phagemid from BCMA panning output were picked and phage were rescued in 96-well format using VCSM13 helper phage following standard protocols. To assay target binding by ELISA, 96-well plates were coated with 1.3 microg/ml goat anti-human IgG1-Fc antibody followed by incubation with 5 nM of recombinant human target (BCMA-Fc, CD123-Fc, AFP, or AFP123) or IgG1-Fc. 50 microl of rescued phage diluted 5× in ELISA blocking buffer was then added to each well. Binding was detected using an HRP-conjugated anti-M13 antibody and the ELISA ratio for each sequence is reported as the absorbance at 450 nm for target (i.e., BCMA-Fc, CD123-Fc, AFP, or AFP123) divided by that for IgG1-Fc averaged across all screened wells containing that clone.

| Binder | ELISA_avg [ratio A450 target/IgG1-Fc] |
| --- | --- |
| B1 | 6.9 |
| B2 | 3.5 |
| B3 | 3.4 |
| B4 | 5.4 |
| B5 | 5.1 |
| B6 | 7.2 |
| B7 | 18.6 |
| B8 | 6.8 |
| B9 | 3.3 |
| B10 | 4.2 |
| B11 | 17.7 |
| B12 | 13.7 |
| B13 | 17 |
| B14 | 15.7 |
| B15 | 15.1 |
| B16 | 13.1 |
| B17 | 13 |
| B18 | 13.6 |
| B19 | 20.8 |
| B20 | 16.1 |
| B21 | 16.1 |
| B22 | 24.9 |
| B23 | 5.9 |

| Binder | ELISA_avg [ratio A450 target/IgG1-Fc] |
| --- | --- |
| B24 | 7.6 |
| B25 | 3.6 |
| B26 | 4.9 |
| B27 | 3.9 |
| B28 | 3.3 |
| B29 | 3.6 |
| B30 | 4 |
| B31 | 3 |
| B32 | 4.2 |
| B33 | 5 |
| B34 | 17 |
| B35 | 5.6 |
| B36 | 3.2 |
| B37 | 3.8 |
| B38 | 4.1 |
| B39 | 4 |
| B40 | 16.9 |
| B41 | 5.8 |
| B42 | 5.3 |
| B43 | 4.1 |
| B44 | 4.6 |
| B45 | 3.9 |
